The text below walks through data of patent US20180236053A1 (CELLECTIS, published 2018).

Bounds are passed on as bounds.

The target of assay [1] is CD38 antigen on the surface of cells (U266 CD38+, MOLP8, Daudi, T-ALL cell lines, activated T cells) (human, UniProt P28907 1-300). The assay is described as follows: cell-based or functional assay.
Assay [2] concerns the target T1, CD38-Fc protein (produced by LakePharma) (UniProt P28907 43-300, limits assumed).
T1 construct: Staining reagent for CAR detection by flow cytometry; also called CD38-Fc fusion protein; not shown: Fc part
Kind of assay: flow cytometry, CD38 Fc staining of CD38/TRAC double KO T cells transduced with rLV (FIG. 27C). The method, then:
The parameters are the following: T cells were activated by using Dynabeads CD3-CD28, the culture were made by using medium Xvivo+5% human serum heat inactivated+IL-2 20 ng/ml, a double KO (DKO) CD38-TRAC was performed by using a ratio of 2 μg TALEN mRNA per million of cells (5 million cells/cuvette); the transduction was performed by using rLV from Vectalys(France) at a MOI of 5.
The screening of the 4 CARs 25A10-v1, -v2, 28F5-v1 and -v2 after rLV transduction in DKO T cells has shown that all the CARs were expressed at the T cell surface with a high efficiency (>40%) and 3 of them above 80% (FIG. 27C). RQR8 expression was correlated with CAR expression (FIG. 27A). Most of the T cells were CD38 negative when T cells have been transduced by CD38 CARs (FIG. 27A). It is shown also that 60-85% of T cells endowed with the above 4 CARs were DKO TRAC/CD38 (FIG. 27B).

Assay [3] deals with T1, CD38-Fc protein (produced by LakePharma). Kind of assay: flow cytometry, CD38-Fc fusion protein staining of purified CD38-deficient T cells transfected with CAR mRNA (FIG. 15). The method, then: T cells were purified from buffy coat samples and activated using anti-CD3/CD28 coated beads and IL-2. CD38-1 TALEN mRNA was transfected in T cells at day 4 after activation, 6 days later CD38 negative cells were purified by using magnetic separation (Miltenyi). The day after, CAR mRNAs were transfected. The CAR expression and degranulation capacity of CART cells were assessed 24 hours after the transfection. CAR expression and cytotoxic capacity of CART cells were assessed 48 hours after the transfection.
All CARs were detected 24 h after transfection except the 25A10-V3 However, the latter expressed anti-CD38 CAR above the background. The 13F11-V2, 25A10-V1, 25A10-V2 and 28F5-V2 were highly expressed (more than 80%).
In general terms: A flow cytometer gives signals particle by particle.

B1: 13F11-V3 CAR (other)
chain: QIQLVQSGPELKKPGETVKISCKASGYTFKKYGMNWVKQAPGKGLKWMGWINTNTGEPTYAEEFKGRFAFSLETSASTAYLQINNLKNEDTATYFCARWYYGSTPSSYTMDYWGQGTSVTVSSGGGGSGGGGSGGGGSETTVTQSPASLSVATGEKVTIRCITSTDIDDDMNWYQQKPGEPPKVLISEGNTLRPGVPSRFSSSGYGTDFVFTIENTLSEDVADYYCLQSNNMPYTFGGGTKLEIKEPKSPDKTHTCPPCPAPPVAGPSVFLFPPKPKDTLMIARTPEVTCVVVDVSHEDPEVKFNWYVDGVEVHNAKTKPREEQYNSTYRVVSVLTVLHQDWLNGKEYKCKVSNKALPAPIEKTISKAKGQPREPQVYTLPPSRDELTKNQVSLTCLVKGFYPSDIAVEWESNGQPENNYKTTPPVLDSDGSFFLYSKLTVDKSRWQQGNVFSCSVMHEALHNHYTQKSLSLSPGKIYIWAPLAGTCGVLLLSLVITLYCKRGRKKLLYIFKQPFMRPVQTTQEEDGCSCRFPEEEEGGCELRVKFSRSADAPAYQQGQNQLYNELNLGRREEYDVLDKRRGRDPEMGGKPRRKNPQEGLYNELQKDKMAEAYSEIGMKGERRRGKGHDGLYQGLSTATKDTYDALHMQALPPR
As for B1, the “ratio of degranulation against U266 CD38+ and U266 CD38-” value (from here on “ratio of degranulation”) in assay [1] was over 2 ratio.

B2: 28F5-V1 CAR (other)
chain: QIQLVQSGPELKKPGETVKISCKASGYTFTKYGMNWVKQTPGKGLKWMGWINTNSGEPTYAEEFKGRFAFSLETSASTAYLQINNLKNEDTATYFCARGAYYRYDGEVSYYAMDYWGQGTSVTVSSGGGGSGGGGSGGGGSQIILTQSPAIMSASLGERVTMTCTATSSLSSSYLHWYQQKPGSSPKLWIYSTSHLASGVPARFSGGGSGTSYSLTISSMEAEDAATYYCHQYHLSPYTFGGGTKLEIKGLAVSTISSFFPPGYQIYIWAPLAGTCGVLLLSLVITLYCKRGRKKLLYIFKQPFMRPVQTTQEEDGCSCRFPEEEEGGCELRVKFSRSADAPAYQQGQNQLYNELNLGRREEYDVLDKRRGRDPEMGGKPRRKNPQEGLYNELQKDKMAEAYSEIGMKGERRRGKGHDGLYQGLSTATKDTYDALHMQALPPR
notes: Chimeric antigen receptor on T cells; signal peptide left out here
As for B2, in assay [2], the “% of T cells stained by CD38-Fc (CAR expression)” value (shortened to “% of T cells stained by CD38-Fc”) is over 40%. The “ratio of degranulation” value in assay [1] is over 2 ratio.

B3: 13F11-V1 CAR (other)
chain: QIQLVQSGPELKKPGETVKISCKASGYTFKKYGMNWVKQAPGKGLKWMGWINTNTGEPTYAEEFKGRFAFSLETSASTAYLQINNLKNEDTATYFCARWYYGSTPSSYTMDYWGQGTSVTVSSGGGGSGGGGSGGGGSETTVTQSPASLSVATGEKVTIRCITSTDIDDDMNWYQQKPGEPPKVLISEGNTLRPGVPSRFSSSGYGTDFVFTIENTLSEDVADYYCLQSNNMPYTFGGGTKLEIKGLAVSTISSFFPPGYQIYIWAPLAGTCGVLLLSLVITLYCKRGRKKLLYIFKQPFMRPVQTTQEEDGCSCRFPEEEEGGCELRVKFSRSADAPAYQQGQNQLYNELNLGRREEYDVLDKRRGRDPEMGGKPRRKNPQEGLYNELQKDKMAEAYSEIGMKGERRRGKGHDGLYQGLSTATKDTYDALHMQALPPR
As to B3, the “ratio of degranulation” value in assay [1] was over 2 ratio.

B4: 25A10-V2 CAR (other)
chain: EVQLQQSGAELVRPGASVKLSCTASGFNIKDSLIHWVKQRPEQGLEWIGWIDPEDDKTKYAPKFQDKATLTADTSSNTAYLQLSTLTSEDTAIYYCVSRYINYYFAYWGQGTTLTVSSGGGGSGGGGSGGGGSDIVMTQSPSSLTVTAGEKVTMSCKSSQSLLHSGNQRNYLTWYQQKPGQPPKLLIYWASTRESGVPDRFTGSGSGTDFTLTISSVQAEDLAVYYCQNDYDYPYTFGGGTKLEIKTTTPAPRPPTPAPTIASQPLSLRPEACRPAAGGAVHTRGLDFACDIYIWAPLAGTCGVLLLSLVITLYCKRGRKKLLYIFKQPFMRPVQTTQEEDGCSCRFPEEEEGGCELRVKFSRSADAPAYQQGQNQLYNELNLGRREEYDVLDKRRGRDPEMGGKPRRKNPQEGLYNELQKDKMAEAYSEIGMKGERRRGKGHDGLYQGLSTATKDTYDALHMQALPPR
notes: as for B2
Turning to B4, the “% of T cells stained by CD38-Fc” value was over 40% in assay [2] and over 80% in assay [3].

B5: GMB005-V1 CAR (other)
chain: EVQLLESGGGLVQPGGSLRLSCAVSGFTFNSFAMSWVRQAPGKGLEWVSAISGSGGGTYYADSVKGRFTISRDNSKNTLYLQMNSLRAEDTAVYFCAKDKILWFGEPVFDYWGQGTLVTVSSASGGGGSGGGGSGGGGSEIVLTQSPATLSLSPGERATLSCRASQSVSSYLAWYQQKPGQAPRLLIYDASNRATGIPARFSGSGSGTDFTLTISSLEPEDFAVYYCQQRSNWPPTFGQGTKVEIKGLAVSTISSFFPPGYQIYIWAPLAGTCGVLLLSLVITLYCKRGRKKLLYIFKQPFMRPVQTTQEEDGCSCRFPEEEEGGCELRVKFSRSADAPAYQQGQNQLYNELNLGRREEYDVLDKRRGRDPEMGGKPRRKNPQEGLYNELQKDKMAEAYSEIGMKGERRRGKGHDGLYQGLSTATKDTYDALHMQALPPR
With B5, the “ratio of degranulation” value in assay [1] is over 2 ratio.

B6: 13F11-V2 CAR (other)
chain: QIQLVQSGPELKKPGETVKISCKASGYTFKKYGMNWVKQAPGKGLKWMGWINTNTGEPTYAEEFKGRFAFSLETSASTAYLQINNLKNEDTATYFCARWYYGSTPSSYTMDYWGQGTSVTVSSGGGGSGGGGSGGGGSETTVTQSPASLSVATGEKVTIRCITSTDIDDDMNWYQQKPGEPPKVLISEGNTLRPGVPSRFSSSGYGTDFVFTIENTLSEDVADYYCLQSNNMPYTFGGGTKLEIKTTTPAPRPPTPAPTIASQPLSLRPEACRPAAGGAVHTRGLDFACDIYIWAPLAGTCGVLLLSLVITLYCKRGRKKLLYIFKQPFMRPVQTTQEEDGCSCRFPEEEEGGCELRVKFSRSADAPAYQQGQNQLYNELNLGRREEYDVLDKRRGRDPEMGGKPRRKNPQEGLYNELQKDKMAEAYSEIGMKGERRRGKGHDGLYQGLSTATKDTYDALHMQALPPR
notes: as for B2
As for B6, in assay [3], the “% of T cells stained by CD38-Fc” value was over 80%.

B7: 16B5-V2 CAR (other)
chain: QAYLQQSGAELVRSGASVKMSCKASGYTFTSYNLHWVKQTPGQGLEWIGYIYPGNGGTNYNQKFKGKATLTADTSSSTAYMQISSLTSEDSAVYFCARGGIYYYGSSLDYWGQGTTLTVSSGGGGSGGGGSGGGGSNIVLTQSPASLAVSLGQRATISCRASESVDNYGTTFMYWYQQKPGQPPKLLIYLASNLESGVPARFSGSGSGTDFTLTIDPVEADDAATYYCQQNKEDPWTFGGGTKLEIKTTTPAPRPPTPAPTIASQPLSLRPEACRPAAGGAVHTRGLDFACDIYIWAPLAGTCGVLLLSLVITLYCKRGRKKLLYIFKQPFMRPVQTTQEEDGCSCRFPEEEEGGCELRVKFSRSADAPAYQQGQNQLYNELNLGRREEYDVLDKRRGRDPEMGGKPRRKNPQEGLYNELQKDKMAEAYSEIGMKGERRRGKGHDGLYQGLSTATKDTYDALHMQALPPR
With B7, in assay [1], the “ratio of degranulation” value was over 2 ratio.

B8: 25A10-V1 CAR (other)
chain: EVQLQQSGAELVRPGASVKLSCTASGFNIKDSLIHWVKQRPEQGLEWIGWIDPEDDKTKYAPKFQDKATLTADTSSNTAYLQLSTLTSEDTAIYYCVSRYINYYFAYWGQGTTLTVSSGGGGSGGGGSGGGGSDIVMTQSPSSLTVTAGEKVTMSCKSSQSLLHSGNQRNYLTWYQQKPGQPPKLLIYWASTRESGVPDRFTGSGSGTDFTLTISSVQAEDLAVYYCQNDYDYPYTFGGGTKLEIKGLAVSTISSFFPPGYQIYIWAPLAGTCGVLLLSLVITLYCKRGRKKLLYIFKQPFMRPVQTTQEEDGCSCRFPEEEEGGCELRVKFSRSADAPAYQQGQNQLYNELNLGRREEYDVLDKRRGRDPEMGGKPRRKNPQEGLYNELQKDKMAEAYSEIGMKGERRRGKGHDGLYQGLSTATKDTYDALHMQALPPR
notes: signal peptide left out here
Consider B8, for which the “% of T cells stained by CD38-Fc” value was over 40% in assay [2] and over 80% in assay [3]. In addition, the “ratio of degranulation” value in assay [1] is over 2 ratio.

B9: 16B5-V1 CAR (other)
chain: QAYLQQSGAELVRSGASVKMSCKASGYTFTSYNLHWVKQTPGQGLEWIGYIYPGNGGTNYNQKFKGKATLTADTSSSTAYMQISSLTSEDSAVYFCARGGIYYYGSSLDYWGQGTTLTVSSGGGGSGGGGSGGGGSNIVLTQSPASLAVSLGQRATISCRASESVDNYGTTFMYWYQQKPGQPPKLLIYLASNLESGVPARFSGSGSGTDFTLTIDPVEADDAATYYCQQNKEDPWTFGGGTKLEIKGLAVSTISSFFPPGYQIYIWAPLAGTCGVLLLSLVITLYCKRGRKKLLYIFKQPFMRPVQTTQEEDGCSCRFPEEEEGGCELRVKFSRSADAPAYQQGQNQLYNELNLGRREEYDVLDKRRGRDPEMGGKPRRKNPQEGLYNELQKDKMAEAYSEIGMKGERRRGKGHDGLYQGLSTATKDTYDALHMQALPPR
As for B9, the “ratio of degranulation” value in assay [1] is over 2 ratio.
